Holding throughout (test): ITC; Lge1-CT (50–60 μM) injected into Bre1-LR (15 μM); 25°C, 20 mM TRIS (pH 7.5), 200 mM sodium chloride
Conditions in all cases: both partners purified

The target in experiment [1] is T1, Bre1-LR E378K/E500K (budding yeast, UniProt Q07457 227-700, E378K | E500K).
T1 construct: source: E. coli BL21 Rosetta (DE3), purified (Ni-NTA, heparin, gel filtration)
T1 sequence (looked up): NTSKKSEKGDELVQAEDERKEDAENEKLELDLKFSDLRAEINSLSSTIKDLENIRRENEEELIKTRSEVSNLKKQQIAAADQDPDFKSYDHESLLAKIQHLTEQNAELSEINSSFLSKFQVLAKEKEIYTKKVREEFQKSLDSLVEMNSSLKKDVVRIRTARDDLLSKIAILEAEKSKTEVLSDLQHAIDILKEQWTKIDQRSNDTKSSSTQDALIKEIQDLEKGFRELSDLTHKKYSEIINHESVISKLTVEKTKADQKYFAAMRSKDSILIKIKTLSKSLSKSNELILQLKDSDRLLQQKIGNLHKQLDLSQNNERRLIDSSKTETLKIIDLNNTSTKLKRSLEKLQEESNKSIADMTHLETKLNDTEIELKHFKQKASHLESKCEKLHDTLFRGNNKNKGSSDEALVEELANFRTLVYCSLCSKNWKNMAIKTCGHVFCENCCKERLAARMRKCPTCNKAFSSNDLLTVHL

Experiment [2] deals with T2, Bre1-LR K352E (budding yeast, UniProt Q07457 227-700, K352E).
T2 construct: source: E. coli BL21 Rosetta (DE3), purified (Ni-NTA, heparin, gel filtration)
T2 sequence (looked up): T1 sequence (looked up) with K126E, K152E, K274E

Experiment [3] concerns the target T3, Bre1-LR K379E (budding yeast, UniProt Q07457 227-700, K379E).
T3 construct: source: E. coli BL21 Rosetta (DE3), purified (Ni-NTA, heparin, gel filtration)
T3 sequence (looked up): T1 sequence (looked up) with K152E, K153E, K274E

In experiment [4] the target is T4, Bre1-LR K534E (budding yeast, UniProt Q07457 227-700, K534E).
T4 construct: source: E. coli BL21 Rosetta (DE3), purified (Ni-NTA, heparin, gel filtration)
T4 sequence (looked up): T1 sequence (looked up) with K152E, K274E, K308E

Numbering of substitutions follows the chain as printed.

B1: Lge1-CT (Lge1 residues 261–332), intein-chitin binding domain (CBD) tag construct (domain or fragment, budding yeast, UniProt Q02796 261-332, looked up)
chain: KNVKKTNNTESECEKAREVFKESDSIDSALEELNLKINSNELELRLLNNQCDKHALNIQLTQEKLDSLLLMQ
notes: Lge1, budding yeast, residues 261-332; residues 268–331 resolved in the electron density; the intein-CBD tag is named on the protein in the pull-down; also called intein-CBD-fused Lge1-CT; intein-CBD-tagged Lge1-CT; source: E. coli BL21 Rosetta (DE3): cleared cell extract on chitin resin (pull-down); purified (chitin, heparin, gel filtration) for ITC and SPR; co-purified with Bre1-LR for the …
As for B1, the Kd in experiment [1] was 98 ± 31.2 nM; in experiment [2], 176 ± 45 nM; in experiment [3], 58.1 ± 19 nM; in experiment [4], 36.9 ± 14.5 nM. Also, the dH was -40.7 ± 1.9 kcal/mol in experiment [1], -22.9 ± 1.3 kcal/mol in experiment [2], -37.7 ± 1.6 kcal/mol in experiment [3] and -33.9 ± 2.1 kcal/mol in experiment [4]. The “stoichiometry N” value in experiment [1] was determined as 0.256 ± 0.007; in experiment [2], 0.432 ± 0.011; in experiment [3], 0.428 ± 0.008; in experiment [4] it was 0.469 ± 0.008.

The values are drawn from paper PMC12802937 (Nucleic Acids Research, 2026).
